Measurements reported in article PMC8897274 (Structure (London, England : 1993), 2021).
Ends that are not written are not given here.

B2: PCNA3 subunit of S. solfataricus PCNA (natural protein)
chain: MKVVYDDVRVLKDIIQALARLVDEAVLKFKQDSVELVALDRAHISLISVNLPREMFKEYDVNDEFKFGFNTQYLMKILKVAKRKEAIEIASESPDSVIINIIGSTNREFNVRNLEVSEQEIPEINLQFDISATISSDGFKSAISEVSTVTDNVVVEGHEDRILIKAEGESEVEVEFSKDTGGLQDLEFSKESKNSYSAEYLDDVLSLTKLSDYVKISFGNQKPLQLFFNMEGGGKVTYLLAPKV

Assays:
[1] = target: T1, PCNA_(1–2-3) heterotrimer of S. solfataricus (S. solfataricus, UniProt P57766 1-249; Q97Z84 1-245; P57765 1-244); experiment: SEC
T1 sequence 1: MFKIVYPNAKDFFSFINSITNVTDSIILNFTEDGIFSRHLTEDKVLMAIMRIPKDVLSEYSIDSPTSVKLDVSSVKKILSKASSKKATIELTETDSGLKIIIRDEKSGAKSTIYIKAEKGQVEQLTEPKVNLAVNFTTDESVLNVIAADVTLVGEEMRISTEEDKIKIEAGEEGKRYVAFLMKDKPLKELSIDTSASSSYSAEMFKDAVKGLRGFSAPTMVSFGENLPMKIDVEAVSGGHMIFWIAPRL
T1 sequence 2: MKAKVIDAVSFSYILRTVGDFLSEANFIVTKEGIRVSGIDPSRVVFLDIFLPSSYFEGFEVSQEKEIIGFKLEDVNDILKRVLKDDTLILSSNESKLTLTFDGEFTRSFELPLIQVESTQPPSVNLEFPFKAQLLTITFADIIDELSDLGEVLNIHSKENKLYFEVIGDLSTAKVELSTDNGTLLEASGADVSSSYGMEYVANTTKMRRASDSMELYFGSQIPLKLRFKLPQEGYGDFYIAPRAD
T1 sequence 3: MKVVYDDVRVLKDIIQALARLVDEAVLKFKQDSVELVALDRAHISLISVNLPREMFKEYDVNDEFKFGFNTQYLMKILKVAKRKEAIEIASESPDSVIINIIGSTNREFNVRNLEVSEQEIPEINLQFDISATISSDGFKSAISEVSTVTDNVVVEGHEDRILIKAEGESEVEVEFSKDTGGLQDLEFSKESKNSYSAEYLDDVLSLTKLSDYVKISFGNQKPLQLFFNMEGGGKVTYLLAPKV

[2] = target: T2, DNA ligase from S. solfataricus (Lig), wild type (S. solfataricus, UniProt Q980T8 1-601); experiment: negative stain electron microscopy
T2 sequence: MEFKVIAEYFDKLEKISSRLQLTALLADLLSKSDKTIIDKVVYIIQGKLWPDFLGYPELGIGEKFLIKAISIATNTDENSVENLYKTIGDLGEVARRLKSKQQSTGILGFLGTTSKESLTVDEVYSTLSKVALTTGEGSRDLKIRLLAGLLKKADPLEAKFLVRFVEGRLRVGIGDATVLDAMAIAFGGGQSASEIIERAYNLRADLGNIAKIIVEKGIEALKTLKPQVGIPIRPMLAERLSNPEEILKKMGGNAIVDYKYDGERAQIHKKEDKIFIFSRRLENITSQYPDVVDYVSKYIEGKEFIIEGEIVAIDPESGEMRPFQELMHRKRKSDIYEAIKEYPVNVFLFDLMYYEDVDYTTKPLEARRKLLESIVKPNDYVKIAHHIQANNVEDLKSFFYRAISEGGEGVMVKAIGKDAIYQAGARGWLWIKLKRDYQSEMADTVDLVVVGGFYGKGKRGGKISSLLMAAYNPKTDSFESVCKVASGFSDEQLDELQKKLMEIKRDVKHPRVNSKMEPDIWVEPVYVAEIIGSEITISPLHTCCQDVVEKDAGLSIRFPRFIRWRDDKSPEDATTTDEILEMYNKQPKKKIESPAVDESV

[3] = target: T3, PCNA1 subunit of S. solfataricus PCNA (S. solfataricus, UniProt P57766 1-249); experiment: cryo-EM structure
T3 sequence: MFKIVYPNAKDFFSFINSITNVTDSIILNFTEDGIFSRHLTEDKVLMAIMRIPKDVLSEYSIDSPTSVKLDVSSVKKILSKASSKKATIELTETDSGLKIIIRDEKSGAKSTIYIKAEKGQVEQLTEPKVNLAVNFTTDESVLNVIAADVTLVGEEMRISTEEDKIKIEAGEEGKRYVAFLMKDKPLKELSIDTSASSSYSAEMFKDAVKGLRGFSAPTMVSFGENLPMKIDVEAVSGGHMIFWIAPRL

[4] = target: T4, PCNA2 subunit of S. solfataricus PCNA (S. solfataricus, UniProt Q97Z84 1-245); experiment: cryo-EM structure
T4 sequence: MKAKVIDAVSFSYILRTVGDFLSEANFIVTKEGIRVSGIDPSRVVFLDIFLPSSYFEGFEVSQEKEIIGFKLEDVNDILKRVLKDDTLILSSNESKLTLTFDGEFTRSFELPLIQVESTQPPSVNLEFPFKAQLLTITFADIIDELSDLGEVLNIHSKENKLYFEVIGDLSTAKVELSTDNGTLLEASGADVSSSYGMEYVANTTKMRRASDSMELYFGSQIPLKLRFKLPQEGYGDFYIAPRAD

[5] = target: T5, DNA ligase (Lig);PCNA1-PCNA2-PCNA3 heterotrimer (S. solfataricus;S. solfataricus, UniProt Q980T8;P57766;Q97Z84;P57765 1-601;1-249;1-245;1-244, |); experiment: cryo-EM
T5 sequence 1: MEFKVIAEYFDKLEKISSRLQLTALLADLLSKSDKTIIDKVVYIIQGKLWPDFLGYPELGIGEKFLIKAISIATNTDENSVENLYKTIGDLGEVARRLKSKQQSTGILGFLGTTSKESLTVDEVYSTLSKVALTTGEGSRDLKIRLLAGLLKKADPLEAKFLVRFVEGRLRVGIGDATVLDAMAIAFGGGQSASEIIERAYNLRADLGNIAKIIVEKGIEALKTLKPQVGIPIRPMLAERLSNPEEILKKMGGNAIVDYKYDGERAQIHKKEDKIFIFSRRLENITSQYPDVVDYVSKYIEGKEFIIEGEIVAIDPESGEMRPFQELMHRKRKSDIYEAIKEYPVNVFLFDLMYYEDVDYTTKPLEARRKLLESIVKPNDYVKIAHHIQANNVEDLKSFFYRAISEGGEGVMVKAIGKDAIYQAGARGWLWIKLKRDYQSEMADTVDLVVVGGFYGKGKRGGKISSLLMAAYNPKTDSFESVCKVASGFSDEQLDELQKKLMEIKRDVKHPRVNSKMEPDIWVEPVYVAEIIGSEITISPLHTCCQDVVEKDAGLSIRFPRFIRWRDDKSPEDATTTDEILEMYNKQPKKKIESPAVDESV
T5 sequence 2: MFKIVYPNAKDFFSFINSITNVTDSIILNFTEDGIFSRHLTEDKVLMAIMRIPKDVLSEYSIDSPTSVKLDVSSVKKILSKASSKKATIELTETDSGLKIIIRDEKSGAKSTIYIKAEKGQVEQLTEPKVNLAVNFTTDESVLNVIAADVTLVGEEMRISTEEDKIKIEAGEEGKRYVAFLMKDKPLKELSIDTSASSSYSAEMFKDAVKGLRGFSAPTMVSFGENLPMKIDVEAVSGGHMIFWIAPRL
T5 sequence 3: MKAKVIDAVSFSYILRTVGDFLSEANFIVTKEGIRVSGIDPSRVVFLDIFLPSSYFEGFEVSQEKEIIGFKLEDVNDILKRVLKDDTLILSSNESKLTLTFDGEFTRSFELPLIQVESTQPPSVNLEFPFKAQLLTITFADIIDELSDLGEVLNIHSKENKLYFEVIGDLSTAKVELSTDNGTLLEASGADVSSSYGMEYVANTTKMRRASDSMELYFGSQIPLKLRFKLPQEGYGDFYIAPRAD
T5 sequence 4: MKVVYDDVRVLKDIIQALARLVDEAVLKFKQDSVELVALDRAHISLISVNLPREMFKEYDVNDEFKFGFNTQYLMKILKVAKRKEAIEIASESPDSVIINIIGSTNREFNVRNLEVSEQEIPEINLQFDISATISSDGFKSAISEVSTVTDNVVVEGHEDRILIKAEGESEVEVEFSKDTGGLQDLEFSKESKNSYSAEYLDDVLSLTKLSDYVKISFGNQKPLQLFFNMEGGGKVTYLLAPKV

[6] = target: T5, DNA ligase (Lig);PCNA1-PCNA2-PCNA3 …; experiment: cryo-EM; remark: listed apart in the source
[7] = target: T5, DNA ligase (Lig);PCNA1-PCNA2-PCNA3 …; experiment: gel filtration co-elution
[8] = target: T5, DNA ligase (Lig);PCNA1-PCNA2-PCNA3 …; experiment: cryo-EM; remark: listed apart in the source
[9] = target: T1, PCNA_(1–2-3) heterotrimer of S. …; experiment: fluorescence polarisation
[10] = target: B2; experiment: fluorescence polarisation
[11] = target: T6, PCNA1–2 heterodimer of S. solfataricus (S. solfataricus, UniProt P57766 1-249; Q97Z84 1-245); experiment: fluorescence polarisation
T6 sequence 1: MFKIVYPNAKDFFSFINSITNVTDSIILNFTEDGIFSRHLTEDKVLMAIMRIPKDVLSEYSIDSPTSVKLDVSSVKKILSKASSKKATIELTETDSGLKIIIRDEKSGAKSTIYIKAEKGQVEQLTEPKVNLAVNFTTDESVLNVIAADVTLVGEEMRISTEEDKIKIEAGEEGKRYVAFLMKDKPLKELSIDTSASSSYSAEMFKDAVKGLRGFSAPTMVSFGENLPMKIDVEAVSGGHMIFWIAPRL
T6 sequence 2: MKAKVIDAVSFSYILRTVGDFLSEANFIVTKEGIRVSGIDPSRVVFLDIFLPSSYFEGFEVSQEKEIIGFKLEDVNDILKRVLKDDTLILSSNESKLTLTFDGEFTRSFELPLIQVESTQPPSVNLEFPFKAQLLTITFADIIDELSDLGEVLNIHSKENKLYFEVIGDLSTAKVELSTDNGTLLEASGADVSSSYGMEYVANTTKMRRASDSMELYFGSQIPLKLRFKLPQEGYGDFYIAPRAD

B1: Lig 103/107 QI-AA mutant (enzyme, S. solfataricus)
chain: MEFKVIAEYFDKLEKISSRLQLTALLADLLSKSDKTIIDKVVYIIQGKLWPDFLGYPELGIGEKFLIKAISIATNTDENSVENLYKTIGDLGEVARRLKSKQASTGALGFLGTTSKESLTVDEVYSTLSKVALTTGEGSRDLKIRLLAGLLKKADPLEAKFLVRFVEGRLRVGIGDATVLDAMAIAFGGGQSASEIIERAYNLRADLGNIAKIIVEKGIEALKTLKPQVGIPIRPMLAERLSNPEEILKKMGGNAIVDYKYDGERAQIHKKEDKIFIFSRRLENITSQYPDVVDYVSKYIEGKEFIIEGEIVAIDPESGEMRPFQELMHRKRKSDIYEAIKEYPVNVFLFDLMYYEDVDYTTKPLEARRKLLESIVKPNDYVKIAHHIQANNVEDLKSFFYRAISEGGEGVMVKAIGKDAIYQAGARGWLWIKLKRDYQSEMADTVDLVVVGGFYGKGKRGGKISSLLMAAYNPKTDSFESVCKVASGFSDEQLDELQKKLMEIKRDVKHPRVNSKMEPDIWVEPVYVAEIIGSEITISPLHTCCQDVVEKDAGLSIRFPRFIRWRDDKSPEDATTTDEILEMYNKQPKKKIESPAVDESV
binding result [1]: binds

B2
binding result [2]: binds
binding result [3]: binds
binding result [4]: binds

B3: 47 bp 3'dideoxy nicked DNA (dsDNA)
DNA 1: GTATCCTCGTAGTGCAGATGCGTC
DNA 2: GTCGGACTGATTCGGTAGATCTG
DNA 3: CAGATCTACCGAATCAGTCCGACGACGCATCTGCACTACGAGGATAC
modifications: 3'-dideoxy terminus of upstream strand; 5'PO4 on downstream strand
binding result [5]: binds

B4: 47 bp nicked DNA, 5'-adenylated (AppDNA) (dsDNA)
DNA 1: GTATCCTCGTAGTGCAGATGCGTC
DNA 2: GTCGGACTGATTCGGTAGATCTG
DNA 3: CAGATCTACCGAATCAGTCCGACGACGCATCTGCACTACGAGGATAC
modifications: 5'-App (adenylated 5'PO4) on downstream strand; 3'OH at nick
binding result [6]: binds

B5: 47 bp ligatable nicked DNA (dsDNA)
DNA 1: GTATCCTCGTAGTGCAGATGCGTC
DNA 2: GTCGGACTGATTCGGTAGATCTG
DNA 3: CAGATCTACCGAATCAGTCCGACGACGCATCTGCACTACGAGGATAC
modifications: 5'PO4 on downstream strand; 3'OH at nick
binding result [7]: binds

B6: 47 bp end-joined duplex DNA (dsDNA)
DNA 1: GTATCCTCGTAGTGCAGATGCGTCGTCGGACTGATTCGGTAGATCTG
DNA 2: CAGATCTACCGAATCAGTCCGACGACGCATCTGCACTACGAGGATAC
binding result [8]: binds

KSKQQSTGILGFLGTTS (also: 6-FAM label, position not given here) [fluorescently labeled Lig loop peptide (17 residues, PIP motif)]
Kd [9]: 13.1 ± 2.5 µM
Kd [10]: 32.5 ± 6.6 µM
Kd [11]: 177 ± 74.4 µM
